Biological target: Tenascin-C (TN-C) (Homo sapiens) (UniProt P24821)
Test: FP
Details: 5'-C6 amine conjugated to MAG2-DO3A chelator; (CH2CH2O)6 spacer between GGGAGGACG and CGUCGC; 3'-3'-T cap; nitrocellulose filter binding, TN-C titrated 1.25e-7 to 6.35e-12 M

Chain of Tenascin-C (TN-C) (Homo sapiens) (P24821 23-2201): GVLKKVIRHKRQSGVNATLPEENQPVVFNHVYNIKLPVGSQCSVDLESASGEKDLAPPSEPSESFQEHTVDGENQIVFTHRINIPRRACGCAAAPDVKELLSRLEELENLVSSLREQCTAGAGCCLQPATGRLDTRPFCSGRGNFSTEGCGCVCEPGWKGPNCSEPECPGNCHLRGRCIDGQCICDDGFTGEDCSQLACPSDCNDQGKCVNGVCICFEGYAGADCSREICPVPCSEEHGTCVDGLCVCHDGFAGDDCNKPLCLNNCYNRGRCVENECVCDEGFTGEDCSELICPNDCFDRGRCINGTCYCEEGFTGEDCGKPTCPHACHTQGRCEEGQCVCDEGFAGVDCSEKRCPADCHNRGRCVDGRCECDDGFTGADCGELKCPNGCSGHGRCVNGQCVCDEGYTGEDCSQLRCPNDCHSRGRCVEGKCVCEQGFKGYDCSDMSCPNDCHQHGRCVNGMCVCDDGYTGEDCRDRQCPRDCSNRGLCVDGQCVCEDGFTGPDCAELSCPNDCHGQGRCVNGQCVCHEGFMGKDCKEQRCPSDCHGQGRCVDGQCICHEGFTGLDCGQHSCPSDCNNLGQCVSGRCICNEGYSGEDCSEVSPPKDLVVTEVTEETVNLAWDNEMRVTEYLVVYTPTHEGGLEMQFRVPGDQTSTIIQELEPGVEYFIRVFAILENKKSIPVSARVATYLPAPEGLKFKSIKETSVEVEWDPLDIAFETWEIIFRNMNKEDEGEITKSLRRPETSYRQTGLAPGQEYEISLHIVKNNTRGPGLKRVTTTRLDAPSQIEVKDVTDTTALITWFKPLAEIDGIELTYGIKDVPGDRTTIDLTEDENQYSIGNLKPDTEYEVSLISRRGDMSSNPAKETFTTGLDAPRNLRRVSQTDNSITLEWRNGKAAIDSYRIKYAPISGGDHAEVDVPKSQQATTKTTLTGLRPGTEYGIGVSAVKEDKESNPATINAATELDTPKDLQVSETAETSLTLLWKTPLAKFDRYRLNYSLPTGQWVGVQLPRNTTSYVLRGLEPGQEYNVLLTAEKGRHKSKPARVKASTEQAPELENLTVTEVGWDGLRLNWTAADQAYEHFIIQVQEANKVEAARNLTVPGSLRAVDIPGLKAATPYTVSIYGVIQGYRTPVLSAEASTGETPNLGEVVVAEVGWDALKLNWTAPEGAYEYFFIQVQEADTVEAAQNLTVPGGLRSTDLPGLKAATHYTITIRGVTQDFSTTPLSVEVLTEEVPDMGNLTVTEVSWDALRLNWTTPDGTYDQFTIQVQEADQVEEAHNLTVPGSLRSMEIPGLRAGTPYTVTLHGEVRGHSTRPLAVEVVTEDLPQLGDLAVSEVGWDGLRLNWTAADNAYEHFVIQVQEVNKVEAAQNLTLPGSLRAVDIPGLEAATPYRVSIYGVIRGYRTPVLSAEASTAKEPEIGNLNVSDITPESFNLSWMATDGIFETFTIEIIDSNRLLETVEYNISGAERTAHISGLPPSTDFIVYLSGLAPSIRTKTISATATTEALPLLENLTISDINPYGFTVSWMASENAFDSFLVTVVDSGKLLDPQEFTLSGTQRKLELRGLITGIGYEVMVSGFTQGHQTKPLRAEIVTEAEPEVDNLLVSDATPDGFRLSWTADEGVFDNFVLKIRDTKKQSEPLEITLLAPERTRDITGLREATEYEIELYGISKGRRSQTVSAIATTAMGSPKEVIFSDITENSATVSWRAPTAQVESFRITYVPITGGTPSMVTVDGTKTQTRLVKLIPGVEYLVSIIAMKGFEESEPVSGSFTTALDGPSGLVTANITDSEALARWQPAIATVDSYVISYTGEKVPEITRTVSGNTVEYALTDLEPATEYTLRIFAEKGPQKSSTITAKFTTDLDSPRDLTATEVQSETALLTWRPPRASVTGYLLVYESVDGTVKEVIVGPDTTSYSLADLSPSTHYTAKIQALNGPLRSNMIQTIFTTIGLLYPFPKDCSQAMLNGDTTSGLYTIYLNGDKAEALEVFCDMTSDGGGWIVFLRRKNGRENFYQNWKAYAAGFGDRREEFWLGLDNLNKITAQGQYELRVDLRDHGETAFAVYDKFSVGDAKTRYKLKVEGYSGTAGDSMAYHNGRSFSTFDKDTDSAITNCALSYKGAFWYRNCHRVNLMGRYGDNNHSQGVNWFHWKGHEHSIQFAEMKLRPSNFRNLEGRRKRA

Q: Which Kd does the source give for “GGGAGGACGCGUCGCCGUAAUGGAUGUUUUGCUCCCUG [111In-TTA1-MAG2-DO3A]” here?
A: 1 nM
